According to the domain aggregation screens of Martell et al. (2025):

Assay: soluble fraction after stress (log2 fold change); higher = more stays soluble; pooled small domains, quantitative proteomics
Settings: stress: 50 degC
In short: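 Quantitative proteomics served as the high-throughput read-out for pooled custom libraries of small protein domains. Each was stressed at 50°C. Aggregation propensity is expressed as the base-two log fold change in soluble protein after stress. A higher value means a larger share of the protein remains in solution.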

Sequence | soluble fraction (log2)
HMGISVEVPDLKNMSVAEAGSLLKNSGLSYAVVDSDYVKTISPGKILDQNPGRGLRVKKGRIVYLTINSL | -1.37
HMAVEETFTITWLDRDGTVLEVDENVLKGTMPSFDGHIPPHDGLEFKGWDPEVVPVEGDATYTATYKA | -0.176
HMGGKYKGVIIGHLIDKTLRYNELQKLISHATPKMLIQQLKELEADGIIQRKLYPVVPPKTEYSLTERG | -0.754
HMKMQPVISQGVLYINNVTDVRTIEVFDISGRIVADAAASTTVNIAHLNEGPYIVKVTTVNGIESIKILNK | -0.223
HMHSEEAALLHRYIDSLEEPQHTVVVMRDIGGYSFEEIASVVQLKEAHIWMILSRARRKLRELYIKTMDHH | 0.138
HMSEQTLEDVRRLIEHLPESQKEVVKMRYYQDLSFKEIADLKGISINTALGRMHYAINNMRKMAKEYGL | -1.54
HMETYHIQMKGDPSKGIVGFSQLDMVIDKIKRLETEKGIAPYELEVLDGDTMEKYSGEEFLTMHE | 0.0939
HMAEANTEADFVAIGVRAELLPILQKLGVHTIEQLKGIKATKLFNDIPGMRKKLKLDAVQNPTLQEIEGWL | 0.00541
HMLELTVSDKMARLMAWRNRRRVNLSDQELHRIAAAPKQSPESILKMLPGFLQDSVPEIWAELTGGRP | -0.192
HMSYQFKIKNNAAVEVTVSEKNNLLGSTYGDKATVAAGMEKNVTFYTDKPDVVVDTNGNFTITVHDKEIII | 0.132
HMGDKVLIQTAQRLKKDLPFASIVSRFGGDEFLIFLPGISSTERVETIVKKTVFLFIAISTTLF | -0.124
HMTLDEDYFYYTLKAKEGYYRLYKKLGVDRKIIDSLNPNLKEMGLQVGMVIRVPKSQTSDLSVKNSLLVE | -1.4
HMAMKFQDIVRQKRKELGLTQEQAARRLGVSPAAVSKWESGQSLPDTPLFAPLARLLHTDLNTLLSFE | -0.732
HMTGMEKFLTIPSIRESTAAFEREYLIHYLDENAWQVSKTAAAIGIERTTLYKKMKQLGIVPIEE | -2.07
HMRTVEQFQIRKIYAISNALGISDSRADEDELHVLVSGLTGKDSIKELTYREASVVIERLEELQ | -2.54
HMLPGVPVVAGKTQSAATRILKAAGYAVSVVREEAFDGVTGTVLRTSPEAGSPLAPGSRVTLVVLQVV | -0.27
HMDDFGERLRKLRVAQDLTQQQLGEKLGVVPSTIGKYEKVKDSYPSIEVLIKLSDFFSVSTDYLLKG | -1.88
HMESNWLTYAKRIQSIADTGMTFAVDDFDKERYQELADISSKMLADLSNIPIGRIENLLGPLGQ | -0.75
HMGDGAWQQGEGGRWWYKYNNGTYPKDRVVTIGGKKYGFDSEGWMLSDTTKAFGGTTYSFAADGVATAQA | -0.0259

Sequence | soluble fraction (log2)
HMGLAWTVEGRTVLLGRTADRIELYNVGGGLVALARESDRISAPGVGLYVVRVVSDGQSVSQKIWIT | -0.394
HMPLAQRFGLTVAQARVLDLLAEGRSNRQIGELLGLTEGTVKIHVSAIMKAMGVSNRAEAALMANRKR | -0.717
HMIQTMVVTDLKNGTIFKENGHPFIVLKYEHIKVSRGSAQVRVKMKNLITGQVLEKSWQSTAHVDDT | -2.1
HMTNLKALRESKGVSQQTVADYLGITRQAYGNYETGKRQADYAALLRLAAFFGVSVDALLQP | -0.299
HMYSDDNKSILNLIDNLFNKENIKIDINAKKLLSNYLGVDRLVTKGEIEKAILFAGTKKHLSIEDISAFLS | -0.0337
HMLDYITLSPQELGKLLSAGNGDAAMVYLYMKATGDVTLKQAETQLGMTNQNLAWAESLLKRLGLMD | -0.556
HMNHNPSIARKISREIKRGAPPESLLNLARTVNDSYYRSLSFVSIAYSIKGKKSKELFEEAISNLT | -0.161
HMREKLKEYVHLLFAGTVGKEDMEQEILQNTLDRFDDWVARGFSEEDAYRKAVSGIGDIDALLG | -0.288
HMAGLYSLLLVELPMERLPEDLPAIKAAWLKTGDTEAFKVALQAMSSRGWTIAVPGKHRDTQMTQL | 0.35
HMPPNVLSEREQEVLQLAADGMSNKEMGSELYIAPTTVRDHMQSIMRKLQVNSRTAAAVAGLKLGLLD | -0.1
HMNQEFRMPNAIKGVELSEENKQQLTQGEKVFLEGMTSAKGSLFDAYVYIDQEKKTLAFDFPEK | 0.184
HMEDGRLPPPGTVLRREYKGRAVFVRVLPKGFEFEGEVYRSLSAIAAKVTGSHWNGFRFFGLHE | -1.54
HMTDFLKTRIDTLGLSTRTLNALSEANVRTIGGIARKKQEDLLEIDGIGEKGIQEIKKMLGEYGITL | -0.126
HMASVVEQVQVSNDISLFRQQNSPYWQARFKVAGKWYTRTTKRTEQTQAAFRAAELRSEVQTKISQGIPLR | -0.866
HMAITVPEGATLSDAAVLLKQAGAVRSADAFLTRAKVFGGSTPIKAGEFVIPVQASNKDILAILQGGK | 0.021
HMSMFAQQLKDLRKKIPGLTQTDMAKKLGIAKTTYASYEQGKRTPDIETQNKIADFFNVSLDYLHG | -0.0838
HMTMIIQLDKNITQEQRQFLVEELNRLSISPNFVSTQFTNYIVGIPKKEFDIRLIGNLPGIADIHFV | -0.183
HMGAVPKNYFPAVEKGLQDSVQKGLLAGYPVVGVKAILYDGSYHPVDSSEMAFKTATIQAFKKGFMEA | 0.2
HMHGEAEFLDATAVVMEKLNPGGLVKIKGEIWQAVSKDGHTIQEGEKVRVFERQGITLLVGHF | -0.171
